Results published in the supplement of paper PMC10126150.
± gives the standard deviation of the averaged measurements.

The sequences below were run on ATP (assay: switch fluorescence ratio, 500 uM ATP over buffer (Cy3 cluster intensity, sum of 5 cycles each) (fold (ratio)); higher = stronger signal-on switching upon ATP binding; sequences stand for … in TCGTCGGCAGCGTCAGATGTGTATAAGAGACAGTTTTTTTTTTTTTTTTTTTTTTTTT…TC). Details: aptamer strand: ATP DNA aptamer (quencher-CACCTGGGGGAGTATTGCGGAGGAAGG + anchor), 100 nM annealed; ATP concentration: 500 uM.
Summary of the method: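 Cy3-labelled switching-strand clusters on a modified Illumina MiSeq flow-cell were annealed to 100 nM quencher-labelled ATP aptamer and imaged first in selection buffer, then after 15 min with 500 uM ATP at 22 °C. NaOH stripping and re-annealing separated each of five buffer/ATP cycles, and clusters outside 100-1000 RFU were excluded. The fluorescence ratio sums target-cycle Cy3 intensity over buffer-cycle Cy3 intensity per cluster and averages it per switch-domain sequence.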
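Note: ATP exposure 15 min at 22 °C before imaging.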

In order of rising switch fluorescence ratio:
1. GCGTTTATGT  0.953 ± 0.025
2. GCGGATTCGG  0.9551 ± 0.0048
3. GCGTCTTGGG  0.96 ± 0.025
4. GCGTTTTGTC  0.96229 ± 0.00085
5. GCGGGTATGA  0.964 ± 0.052
6. GCGGGACGTT  0.96828 ± 0.00072
7. GCGTTAGCGC  0.968 ± 0.012
8. GCGTTAACGC  0.9731 ± 0.0096
9. GCTAATTGTG  0.975 ± 0.0036
10. GCGTTAGGGT  0.976 ± 0.027
11. GCGGGAAAGG  0.978 ± 0.012
12. GCGGGGCCTT  0.9811 ± 0.004
13. GCGTAAGCAG  0.981 ± 0.012
14. GCGTGACGGC  0.981 ± 0.033
15. GCTAACGGTT  0.981 ± 0.011
16. GCGGTTGCCA  0.982 ± 0.033
17. GCGTTAGCTT  0.982 ± 0.069
18. GCGTCCGACT  0.986 ± 0.06
19. GCTAAAGGTA  0.986 ± 0.011
20. GCGGGTTGCC  0.9871 ± 0.0013
21. GCGGTGGCGG  0.987 ± 0.039
22. GCGGATTGAA  0.988 ± 0.044
23. GCGGGTCAAA  0.9883 ± 0.0093
24. GCGTTCACGG  0.988 ± 0.026
25. GCGGTGTTGG  0.9887 ± 0.006
26. GCGTTTAACT  0.9888 ± 0.008
27. GCGGCGGGGG  0.99 ± 0.031
28. GCGGGCGATG  0.9902 ± 0.00014
29. GCGTAAAGGG  0.99 ± 0.043
30. GCGTTTGGGC  0.99 ± 0.057
31. GCGGTGCTGG  0.991 ± 0.024
32. GCGGTAACCA  0.992 ± 0.033
33. GCGTAAAGAT  0.992 ± 0.034
34. GCGGGGACAT  0.994 ± 0.013
35. GCGGTTGTTC  0.995 ± 0.034
36. GCGTCTATTA  0.995 ± 0.012
37. GCGTTGGGGG  0.995 ± 0.037
38. GCTAAAAGTT  0.995 ± 0.021
39. GCGGGCGTTG  0.996 ± 0.053
40. GCGTTTGGCT  0.996 ± 0.021
41. GCTAGGCCTT  0.9957 ± 0.0082
42. GCGGTTCGAA  0.997 ± 0.084
43. GCGTTAGTAG  0.9971 ± 0.0082
44. GCGTTGGAAA  0.997 ± 0.015
45. GCTAGGGTA  0.9973 ± 0.0043
46. GCGGTGGTTT  0.998 ± 0.017
47. GCTAGGTTTG  0.998 ± 0.054
48. GCGGACAGGA  1 ± 0.029
49. GCGTGGGGGG  1 ± 0.016
50. GCGTTAATGG  1 ± 0.02
51. GCGTTGCATT  1 ± 0.017
52. GCGTTTGTGG  1 ± 0.011
53. GCTAAAAAGA  1 ± 0.076
54. GCTATAAGGG  1 ± 0.036
55. GCGGAATGGG  1.01 ± 0.019
56. GCGGGCTTCA  1.01 ± 0.025
57. GCGGGTCAGC  1.01 ± 0.012
58. GCGGGTTTGG  1.01 ± 0.018
59. GCGGTAGGTT  1.01 ± 0.013
60. GCGTTAGTTG  1.01 ± 0.057
61. GCTACAGGTT  1.007 ± 0.0092
62. GCTACTGGAT  1.007 ± 0.0058
63. GCTATAGAAT  1.01 ± 0.028
64. GCGGCTTCGT  1.02 ± 0.07
65. GCGGGCAGGA  1.02 ± 0.021
66. GCGGGGCGGG  1.02 ± 0.017
67. GCGGTAGCAT  1.02 ± 0.012
68. GCGTTCGTGG  1.02 ± 0.027
69. GCGTTTAAGT  1.02 ± 0.032
70. GCGTTTTAAC  1.019 ± 0.0093
71. GCTACTTAGT  1.02 ± 0.017
72. GCTATAGGGG  1.02 ± 0.02
73. GCGTTTGCGC  1.03 ± 0.016
74. GCTAAACGAT  1.03 ± 0.055
75. GCTAGTGAAC  1.029 ± 0.0091
76. GCTATAAAAC  1.03 ± 0.077
77. GCGTACAAGA  1.04 ± 0.061
78. GCGTGTAGAT  1.04 ± 0.036
79. GCGTTCATGG  1.04 ± 0.0093
80. GCTAAAGTCT  1.043 ± 0.0085
81. GCTAGAGAGG  1.04 ± 0.063
82. GCTAGGCATG  1.04 ± 0.027
83. GCGGATGAGA  1.056 ± 0.0096
84. GCGGGATCCG  1.06 ± 0.083
85. GCGGTCAAAC  1.06 ± 0.036
86. GCGTTTGGAC  1.056 ± 0.01
87. GCGGGATACA  1.07 ± 0.034
88. GCGGGGACAA  1.069 ± 0.0083
89. GCGGGGACGG  1.07 ± 0.034
90. GCTACCAAGC  1.07 ± 0.025
91. GCTACTGTTA  1.077 ± 0.0025
92. GCGTTAGTAC  1.09 ± 0.031
93. GCGGAGCATG  1.1036 ± 0.00099
94. GCGGGGTACT  1.11 ± 0.055
95. GCTAAAGGGG  1.19 ± 0.31
96. GCGTATGTAC  1.212 ± 0.0081
97. GCTAGGTGAA  1.21 ± 0.017
98. GCGGCCAGGG  1.23 ± 0.15
99. GCTACACAGG  1.45 ± 0.016
100. GCTACCCACT  1.46 ± 0.033
